Data: patent US20120134979A1, “METHODS AND COMPOSITIONS FOR THE TREATMENT OF SICKLE CELL DISEASE” (priority 2010, published 2012)

Experiments:
[1] = test system: WT mice; assay: WT (control) mice treated with PEG-ADA or PSB1115 for 8 weeks; type: in vivo, mouse; conditions: chronic PEG-ADA enzyme therapy
Description: Mice. Berkley sickle cell disease transgenic mice (SCD Tg mice), expressing exclusively human sickle hemoglobin (HbS) were purchased from The Jackson Laboratory Inc (Paszty, C. Transgenic and gene knock-out mouse models of sickle cell anemia and the thalassemias. Curr Opin Hematol 4, 88-93, 1997). C57BL/6 mice used as controls were purchased from Harlan Laboratories. Adenosine receptor deficient mice were obtained from the following sources: A1R-deficient mice (Jurgen Schnermann, NIDDK, NIH); A2AR-deficient mice (Jiang-Fan Chen, Boston University School of Medicine); A2BR-deficient mice (Michael R. Blackburn, University of Texas-Houston Medical School); and A3R-deficient mice (Marlene Jacobson, Merck Research Laboratories). […]
Mouse organ isolation and histological analysis. Mice were anesthetized and body weight was determined. […] Semiquantification of histological changes was analyzed by Image-Plus, Pro software.

[2] = test system: SCD Tg mice; assay: Life span of RBCs in SCD Tg mice (in vivo biotin labelling); design: species or system mouse
Protocol: Measurement of life span of RBCs in SCD Tg mice. SCD Tg mice were treated with or without PEG ? ADA (2.5 unit/week) for 8 weeks. At 6 week-treatment, RBCs were labeled in vivo by using N-hydroxysuccinimide (NHS) biotin and the life span of circulating red blood cells was measured as described (Perumbeti, et al. A novel human gamma-globin gene vector for genetic correction of sickle cell anemia in a humanized sickle mouse model: critical determinants for successful correction. Blood. 2009; 114(6):1174-1185).
Specifically, 50 mg/kg of NHS biotin was injected into the retro-orbital plexus of SCD Tg mice (prepared in 100 μl sterile saline just prior to injection; initially dissolved at 50 mg/ml in N,—N,-dimethylacetamide) Blood samples (only 5 μl) were collected after first day of biotin-injection from tail vein by venipuncture to determine the percentage of RBCs labeled with biotin. Subsequently, 5 μl of blood were obtained by tail vein every 3 days for measurement of biotinylated RBCs until the 10th day. The percentage of biotinylated RBCs was calculated by determining the fraction of peripheral blood cells labeled with Ter-119 (to identify RBCs) that were also labeled with a streptavidin-conjugated fluorochrome by flow cytometry.

[3] = test system: SCD Tg mice; assay: Plasma adenosine levels in SCD Tg mice under weekly PEG-ADA; type: in vivo, mouse; conditions: weekly injection 2.5 U/week for 8 weeks
Protocol: Adenosine Analysis. […] B., et al. Effects of (R)-deoxycoformycin (pentostatin) on intrauterine nucleoside catabolism and embryo viability in the pregnant mouse. Teratology 45, 91-103, 1992) with modifications. In brief, 500 μl of 0.6 M cold perchloric acid was added to 500 μl blood on ice, mixed using a vertex mixer and subsequently subject to sonication for 10 seconds with output 6 (W-220F, Heat Systems-Ultrasonic, Inc.). The homogenate was centrifuged at 20,000 g for 10 min at […]. The supernatant (568 μl) was transferred to a new tube and neutralized with 40.9 μl 3 M KHCO3/3.6 N KOH. Phenol red (2 μl of 0.2 mg/ml) was added as indicator. The sample was acidified with 5.7 μl of 1.8 M ammonium dihydrogen phosphate (pH 5.1) and 13.2 μl phosphoric acid (30%). Finally, the sample was centrifuged at 20,000 g for 5 min and the supernatant was transferred to a new tube and stored at −20° C. Before HPLC assay, the sample was thawed on ice, then centrifuged at 20,000 g for 10 minutes. […]

B1: PEG-ADA: polyethylene glycol-modified adenosine deaminase, a drug used to lower adenosine concentrations in ADA-deficient humans (protein, UniProt P56658 2-363, looked up)
Adenosine deaminase: AQTPAFNKPKVELHVHLDGAIKPETILYYGRKRGIALPADTPEELQNIIGMDKPLSLPEFLAKFDYYMPAIAGCREAVKRIAYEFVEMKAKDGVVYVEVRYSPHLLANSKVEPIPWNQAEGDLTPDEVVSLVNQGLQEGERDFGVKVRSILCCMRHQPSWSSEVVELCKKYREQTVVAIDLAGDETIEGSSLFPGHVKAYAEAVKSGVHRTVHAGEVGSANVVKEAVDTLKTERLGHGYHTLEDATLYNRLRQENMHFEVCPWSSYLTGAWKPDTEHPVVRFKNDQVNYSLNTDDPLIFKSTLDTDYQMTKNEMGFTEEEFKRLNINAAKSSFLPEDEKKELLDLLYKAYGMPSPASAEQCL
modifications: PEGylated
effect on kidney histology of control mice [1]: no significant effect
fold increase of half-life of RBCs ([2]; chronic treatment vs untreated): 2 fold
half-life of RBCs ([2]; chronic treatment, untreated 2 days): 96 h
Adenosine levels in the plasma at different time points [3]: lowered adenosine to a steady level within two weeks
